Assay results as given in patent US20210364527A1 (QUANTUM SI, published 2021).
Primed or numbered codes have the meaning given here. Ends that are not written are not given here. FITC′ = not defined here

T1: LA peptide LAKLDEESILKQK (XAKLDEESILKQK, X = L)
T1 construct: Immobilized on the biolayer interferometry sensor
T1 peptide: LAKLDEESILKQK

T2: F peptide FAKLDEESILKQK (XAKLDEESILKQK, X = F)
T2 construct: Immobilized on the biolayer interferometry sensor
T2 peptide: FAKLDEESILKQK

T3: Y peptide YAKLDEESILKQK (XAKLDEESILKQK, X = Y)
T3 construct: Immobilized on the biolayer interferometry sensor
T3 peptide: YAKLDEESILKQK

T4: IA peptide IAKLDEESILKQK (XAKLDEESILKQK, X = I)
T4 construct: Immobilized on the biolayer interferometry sensor
T4 peptide: IAKLDEESILKQK

T5: VA peptide VAKLDEESILKQK (XAKLDEESILKQK, X = V)
T5 construct: Immobilized on the biolayer interferometry sensor
T5 peptide: VAKLDEESILKQK

T6: MA
T6 chain: MAKLDEESILKQK

T7: ClpS from Thermosynochoccus elongatus (teClpS) (Thermosynechococcus elongatus, UniProt Q8DJY3 6-94)
T7 construct: Dye-labelled or streptavidin-complexed depending on the assay; also called Thermosynechococcus elongatus ClpS
T7 sequence: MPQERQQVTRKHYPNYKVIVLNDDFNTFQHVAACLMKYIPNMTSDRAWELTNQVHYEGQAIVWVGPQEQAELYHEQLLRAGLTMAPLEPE

T8: Mus musculus UBR-box domain (PS535) (Mus musculus, UniProt Q6WKZ8 98-168)
T8 sequence: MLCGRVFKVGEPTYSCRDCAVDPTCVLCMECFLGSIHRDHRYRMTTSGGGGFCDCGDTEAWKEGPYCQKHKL

T9: Kluyveromyces lactis UBR-box domain (PS528) (Kluyveromyces lactis, UniProt O60014 101-182)
T9 construct: UBR-streptavidin complex in fluorescence polarization
T9 sequence: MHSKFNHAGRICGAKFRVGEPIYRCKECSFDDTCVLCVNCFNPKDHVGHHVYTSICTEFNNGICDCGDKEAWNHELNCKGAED

T10: Saccharomyces cerevisiae UBR-box domain (PS538) (Saccharomyces cerevisiae, UniProt P19812 113-194)
T10 sequence: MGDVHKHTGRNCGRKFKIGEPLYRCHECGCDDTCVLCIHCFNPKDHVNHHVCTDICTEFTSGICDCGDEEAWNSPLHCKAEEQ

T11: RA peptide (N-terminal arginine, penultimate alanine; rest of sequence not given)
T11 peptide: RAKLDEESILKQK-{FITC′}

B1: PS371 (other)
chain: MATETIERPRTRDPGSGLGGHWLVIVLNDDHNTFDHVAKTLARVIPGVTVDDGYRFADQIHQRGQAIVWRGPKEPAEHYWEQLQDAGLSMAPLERH
B2: PS370 (other)
chain: MFNSLGTVLDPKKSKAKYPEARVIVLDDNFNTFQHVANCLLAIIPRMCEQRAWDLTIKVDKAGSAEVWRGNLEQAELYHEQLFSKGLTMAPIEKT
B3: Brachionus plicatilis UBR-box domain (PS505) (other)
chain: MVCGRVFKSGEPSYFCRECGTDPTCVLCSICFRHSKHRYHKYVMMTSGGGGYCDCGDPEAWKSDPCCELHMP
B4: PS545 (other)
chain: MSEPMTLPAIPQPRLKERTQRQPPYNVILLNDDDHSYEYVIAMLQVLFGYPREKGYQMAKEVDSTGRVILLTTTREHAELKQEQIHAFGPDPLMARCQGSMTAVIEPAV
B5: PS551 (other)
chain: MPSAAPAKPKTKRQSRTQGMPPYNVVLLDDDDHTYGYVIEMLNKVFGHPPEKGFELATEVDKNGRVIVMTTNLEVAELKRDEVHAFGPDPLMPRSKGSMSAVVERAG
B6: Agrobacterium tumifaciens ClpS1 (atClpS1) (other)
chain: MIAEPICMQGEGDGEDGGTNRGTSVITRVKPKTKRPNLYRVLLLNDDYTPMEFVIHILERFFQKDREAATRIMLHVHQHGVGECGVFTYEVAETKVSQVMDFARQHQHPLQCVMEKK
notes: also called A. tumefaciens ClpS1; atClpS1 (WT)
B7: FITC-labeled IA peptide IAKLDEESILKQK-FITC (peptide)
peptide: IAKLDEESILKQK-{FITC′}
B8: FITC-labeled VA peptide VAKLDEESILKQK-FITC (peptide)
peptide: VAKLDEESILKQK-{FITC′}
B9: RA peptide RAKLDEESILKQK (XAKLDEESILKQK, X = R) (peptide)
peptide: RAKLDEESILKQK
notes: Biolayer interferometry single-point screen of UBR-box homologs
B10: KA peptide KAKLDEESILKQK (XAKLDEESILKQK, X = K) (peptide)
peptide: KAKLDEESILKQK
notes: as for B9
B11: HA peptide HAKLDEESILKQK (XAKLDEESILKQK, X = H) (peptide)
peptide: HAKLDEESILKQK
notes: as for B9
B12: PS694 (Bis-PS528, Linker 2) (designed binder)
chain: MHSKFNHAGRICGAKFRVGEPIYRCKECSFDDTCVLCVNCFNPKDHVGHHVYTSICTEFNNGICDCGDKEAWNHELNCKGAEDGSAGSAAGSGEFMHSKFNHAGRICGAKFRVGEPIYRCKECSFDDTCVLCVNCFNPKDHVGHHVYTSICTEFNNGICDCGDKEAWNHELNCKGAEDGGSHHHHHHHHHHGGGSGGGSGGGSGLNDFFEAQKIEWHEGGGSGGGSGGGSGLNDFFEAQKIEWHE
notes: Single polypeptide; the entry includes the C-terminal His/bis-biotinylation tag
B13: PS695 (Bis-PS528, Linker 3) (designed binder)
chain: MHSKFNHAGRICGAKFRVGEPIYRCKECSFDDTCVLCVNCFNPKDHVGHHVYTSICTEFNNGICDCGDKEAWNHELNCKGAEDGSAGSAAGSGEFGSAGSAAGSGEFGSAGSAAGSGEFMHSKFNHAGRICGAKFRVGEPIYRCKECSFDDTCVLCVNCFNPKDHVGHHVYTSICTEFNNGICDCGDKEAWNHELNCKGAEDGGSHHHHHHHHHHGGGSGGGSGGGSGLNDFFEAQKIEWHEGGGSGGGSGGGSGLNDFFEAQKIEWHE
notes: as for B12
B14: FITC-labeled LA peptide LAKLDEESILKQK-FITC (peptide)
peptide: LAKLDEESILKQK-{FITC′}
B15: FITC-labeled FA peptide FAKLDEESILKQK-FITC (peptide)
peptide: FAKLDEESILKQK-{FITC′}
B16: FITC-labeled YA peptide YAKLDEESILKQK-FITC (peptide)
peptide: YAKLDEESILKQK-{FITC′}
B17: FITC-labeled WA peptide WAKLDEESILKQK-FITC (peptide)
peptide: WAKLDEESILKQK-{FITC′}

Key:
[1] = target: T1, LA peptide LAKLDEESILKQK …; assay: BLI heatmap
[2] = target: T2, F peptide FAKLDEESILKQK (XAKLDEESILKQK, …); assay: BLI heatmap
[3] = target: T3, Y peptide YAKLDEESILKQK (XAKLDEESILKQK, …); assay: BLI heatmap
[4] = target: B14; assay: fluorescence polarization, single point
[5] = target: B7; assay: fluorescence polarization, single point
[6] = target: B8; assay: fluorescence polarization, single point
[7] = target: B15; assay: fluorescence polarization, single point
[8] = target: B16; assay: fluorescence polarization, single point
[9] = target: T4, IA peptide IAKLDEESILKQK …; assay: BLI heatmap
[10] = target: T5, VA peptide VAKLDEESILKQK …; assay: BLI heatmap
[11] = target: B17; assay: fluorescence polarization, single point
[12] = target: B9; assay: BLI heatmap, single-point screen
[13] = target: T1, LA peptide LAKLDEESILKQK …; assay: biolayer interferometry as in Example 12
[14] = target: T4, IA peptide IAKLDEESILKQK …; assay: biolayer interferometry as in Example 12
[15] = target: T5, VA peptide VAKLDEESILKQK …; assay: biolayer interferometry as in Example 12
[16] = target: T2, F peptide FAKLDEESILKQK (XAKLDEESILKQK, …); assay: biolayer interferometry as in Example 12
[17] = target: T1, LA peptide LAKLDEESILKQK …; assay: biolayer interferometry as in Example 12
[18] = target: T4, IA peptide IAKLDEESILKQK …; assay: biolayer interferometry as in Example 12
[19] = target: T5, VA peptide VAKLDEESILKQK …; assay: biolayer interferometry as in Example 12
[20] = target: T2, F peptide FAKLDEESILKQK (XAKLDEESILKQK, …); assay: biolayer interferometry as in Example 12
[21] = target: T12, FA peptide (N-terminal phenylalanine, penultimate alanine; rest of sequence not given); assay: binder-on-chip single-molecule assay; parameters: unit not given here
T12 construct: they may differ; Dye- or FITC-labelled in some assays; also called phenylalanine peptide; N-terminal FA peptide

[22] = target: T13, YA peptide (N-terminal tyrosine, penultimate alanine; rest of sequence not given); assay: binder-on-chip single-molecule assay; parameters: unit not given here
T13 construct: they may differ; also called tyrosine peptide

[23] = target: T14, WA peptide (N-terminal tryptophan, penultimate alanine; rest of sequence not given); assay: binder-on-chip single-molecule assay; parameters: unit not given here
T14 construct: they may differ; also called tryptophan peptide

[24] = target: LF peptide (N-terminal LF; rest of sequence not given); assay: binder-on-chip single-molecule assay; parameters: unit not given here
MA = target: T6, MA; assay: biolayer interferometry, response against 1/kdis
[25] = target: T4, IA peptide IAKLDEESILKQK …; assay: biolayer interferometry, response against 1/kdis
[26] = target: T5, VA peptide VAKLDEESILKQK …; assay: biolayer interferometry, response against 1/kdis
[27] = target: T7, ClpS from Thermosynochoccus elongatus …; assay: fluorescence polarization, single point
[28] = target: T8, Mus musculus UBR-box domain (PS535); assay: biolayer interferometry single-point screen, 30 C
[29] = target: T9, Kluyveromyces lactis UBR-box domain …; assay: biolayer interferometry single-point screen, 30 C
[30] = target: T10, Saccharomyces cerevisiae UBR-box domain …; assay: biolayer interferometry single-point screen, 30 C
[31] = target: T11, RA peptide (N-terminal arginine, …); assay: fluorescence polarization
[32] = target: T7, ClpS from Thermosynochoccus elongatus …; assay: fluorescence polarization, FITC-peptide with ClpS:streptavidin complex, 23 C

**Q.** Does B1 bind [1]?
**A.** Result: binds

**Q.** Does B1 bind [2]?
**A.** Result: binds

**Q.** Does B1 bind [3]?
**A.** Result: binds

**Q.** Does B1 bind [4]?
**A.** Result: binds

**Q.** Does B1 bind [5]?
**A.** Result: no binding

**Q.** Does B1 bind [6]?
**A.** Result: no binding

**Q.** Does B1 bind [7]?
**A.** Result: binds

**Q.** Does B1 bind [8]?
**A.** Result: binds

**Q.** Does B2 bind [9]?
**A.** Result: no binding

**Q.** Does B2 bind [10]?
**A.** Result: no binding

**Q.** Does B2 bind [4]?
**A.** Result: binds

**Q.** Does B2 bind [5]?
**A.** Result: no binding

**Q.** Does B2 bind [7]?
**A.** Result: binds

**Q.** Does B2 bind [8]?
**A.** Result: binds

**Q.** Does B2 bind [11]?
**A.** Result: binds

**Q.** Does B3 bind [12]?
**A.** Result: binds

**Q.** Does B4 bind [13]?
**A.** Result: binds

**Q.** Does B4 bind [14]?
**A.** Result: binds

**Q.** Does B4 bind [15]?
**A.** Result: binds

**Q.** Does B4 bind [16]?
**A.** Result: no binding

**Q.** What does the source list for B5?
**A.** binding result [17]: binds; binding result [18]: binds; binding result [19]: binds; binding result [20]: no binding

**Q.** B6 was tested. Which Mean pulse width [21] did it give?
**A.** Its Mean pulse width is 0.66.

**Q.** What about the “Median PW” value [21] of the same binder?
**A.** The value was 0.36.

**Q.** What about the Mean pulse width [22] of the same binder?
**A.** The Mean pulse width was 0.77.

**Q.** And the “Median PW” value [22]?
**A.** The value was 0.4.

**Q.** And the Mean pulse width [23]?
**A.** Its Mean pulse width is 0.39.

**Q.** What about the “Median PW” value [23] of the same binder?
**A.** The value was 0.24.

**Q.** And the Mean pulse width [24]?
**A.** The Mean pulse width was 0.3.

**Q.** And the “Median PW” value [24]?
**A.** The value was 0.18.

**Q.** Does B6 bind (MA)?
**A.** Result: no binding

**Q.** Does B6 bind [25]?
**A.** Result: no binding

**Q.** Does B6 bind [26]?
**A.** Result: no binding

**Q.** Does B7 bind [27]?
**A.** Result: no binding

**Q.** Does B8 bind [27]?
**A.** Result: no binding

**Q.** Does B9 bind [28]?
**A.** Result: binds

**Q.** Does B9 bind [29]?
**A.** Result: binds

**Q.** Does B9 bind [30]?
**A.** Result: binds

**Q.** Does B10 bind [28]?
**A.** Result: binds

**Q.** Does B10 bind [29]?
**A.** Result: binds

**Q.** Does B10 bind [30]?
**A.** Result: binds

**Q.** Does B11 bind [29]?
**A.** Result: binds

**Q.** B12 was tested. Which Kd [31] did it give?
**A.** The Kd was 353 nM.

**Q.** With B13 as the binder, how does the Kd [31] read?
**A.** Its Kd is 317 nM.

**Q.** Does B14 bind [32]?
**A.** Result: binds

**Q.** Does B15 bind [32]?
**A.** Result: binds

**Q.** Does B16 bind [32]?
**A.** Result: binds

**Q.** Does B17 bind [32]?
**A.** Result: binds
